Literature values, collected in patent publication US20080279765A1, “Novel Imaging Agents for Fibrosis” (priority 2005, published 2008).
Read-outs that look alike come from different tables or passages of the source.

Key:
M6P receptor [1] = target: T1, M6P receptor (Homo sapiens, UniProt P11717); settings: pH 7.4; read-out: Kd of binding to the M6P receptor
M6P receptor [2] = target: T1, M6P receptor; settings: site on M6P receptor distinct from the IGF-II binding site

T1 sequence (P11717 41-2491): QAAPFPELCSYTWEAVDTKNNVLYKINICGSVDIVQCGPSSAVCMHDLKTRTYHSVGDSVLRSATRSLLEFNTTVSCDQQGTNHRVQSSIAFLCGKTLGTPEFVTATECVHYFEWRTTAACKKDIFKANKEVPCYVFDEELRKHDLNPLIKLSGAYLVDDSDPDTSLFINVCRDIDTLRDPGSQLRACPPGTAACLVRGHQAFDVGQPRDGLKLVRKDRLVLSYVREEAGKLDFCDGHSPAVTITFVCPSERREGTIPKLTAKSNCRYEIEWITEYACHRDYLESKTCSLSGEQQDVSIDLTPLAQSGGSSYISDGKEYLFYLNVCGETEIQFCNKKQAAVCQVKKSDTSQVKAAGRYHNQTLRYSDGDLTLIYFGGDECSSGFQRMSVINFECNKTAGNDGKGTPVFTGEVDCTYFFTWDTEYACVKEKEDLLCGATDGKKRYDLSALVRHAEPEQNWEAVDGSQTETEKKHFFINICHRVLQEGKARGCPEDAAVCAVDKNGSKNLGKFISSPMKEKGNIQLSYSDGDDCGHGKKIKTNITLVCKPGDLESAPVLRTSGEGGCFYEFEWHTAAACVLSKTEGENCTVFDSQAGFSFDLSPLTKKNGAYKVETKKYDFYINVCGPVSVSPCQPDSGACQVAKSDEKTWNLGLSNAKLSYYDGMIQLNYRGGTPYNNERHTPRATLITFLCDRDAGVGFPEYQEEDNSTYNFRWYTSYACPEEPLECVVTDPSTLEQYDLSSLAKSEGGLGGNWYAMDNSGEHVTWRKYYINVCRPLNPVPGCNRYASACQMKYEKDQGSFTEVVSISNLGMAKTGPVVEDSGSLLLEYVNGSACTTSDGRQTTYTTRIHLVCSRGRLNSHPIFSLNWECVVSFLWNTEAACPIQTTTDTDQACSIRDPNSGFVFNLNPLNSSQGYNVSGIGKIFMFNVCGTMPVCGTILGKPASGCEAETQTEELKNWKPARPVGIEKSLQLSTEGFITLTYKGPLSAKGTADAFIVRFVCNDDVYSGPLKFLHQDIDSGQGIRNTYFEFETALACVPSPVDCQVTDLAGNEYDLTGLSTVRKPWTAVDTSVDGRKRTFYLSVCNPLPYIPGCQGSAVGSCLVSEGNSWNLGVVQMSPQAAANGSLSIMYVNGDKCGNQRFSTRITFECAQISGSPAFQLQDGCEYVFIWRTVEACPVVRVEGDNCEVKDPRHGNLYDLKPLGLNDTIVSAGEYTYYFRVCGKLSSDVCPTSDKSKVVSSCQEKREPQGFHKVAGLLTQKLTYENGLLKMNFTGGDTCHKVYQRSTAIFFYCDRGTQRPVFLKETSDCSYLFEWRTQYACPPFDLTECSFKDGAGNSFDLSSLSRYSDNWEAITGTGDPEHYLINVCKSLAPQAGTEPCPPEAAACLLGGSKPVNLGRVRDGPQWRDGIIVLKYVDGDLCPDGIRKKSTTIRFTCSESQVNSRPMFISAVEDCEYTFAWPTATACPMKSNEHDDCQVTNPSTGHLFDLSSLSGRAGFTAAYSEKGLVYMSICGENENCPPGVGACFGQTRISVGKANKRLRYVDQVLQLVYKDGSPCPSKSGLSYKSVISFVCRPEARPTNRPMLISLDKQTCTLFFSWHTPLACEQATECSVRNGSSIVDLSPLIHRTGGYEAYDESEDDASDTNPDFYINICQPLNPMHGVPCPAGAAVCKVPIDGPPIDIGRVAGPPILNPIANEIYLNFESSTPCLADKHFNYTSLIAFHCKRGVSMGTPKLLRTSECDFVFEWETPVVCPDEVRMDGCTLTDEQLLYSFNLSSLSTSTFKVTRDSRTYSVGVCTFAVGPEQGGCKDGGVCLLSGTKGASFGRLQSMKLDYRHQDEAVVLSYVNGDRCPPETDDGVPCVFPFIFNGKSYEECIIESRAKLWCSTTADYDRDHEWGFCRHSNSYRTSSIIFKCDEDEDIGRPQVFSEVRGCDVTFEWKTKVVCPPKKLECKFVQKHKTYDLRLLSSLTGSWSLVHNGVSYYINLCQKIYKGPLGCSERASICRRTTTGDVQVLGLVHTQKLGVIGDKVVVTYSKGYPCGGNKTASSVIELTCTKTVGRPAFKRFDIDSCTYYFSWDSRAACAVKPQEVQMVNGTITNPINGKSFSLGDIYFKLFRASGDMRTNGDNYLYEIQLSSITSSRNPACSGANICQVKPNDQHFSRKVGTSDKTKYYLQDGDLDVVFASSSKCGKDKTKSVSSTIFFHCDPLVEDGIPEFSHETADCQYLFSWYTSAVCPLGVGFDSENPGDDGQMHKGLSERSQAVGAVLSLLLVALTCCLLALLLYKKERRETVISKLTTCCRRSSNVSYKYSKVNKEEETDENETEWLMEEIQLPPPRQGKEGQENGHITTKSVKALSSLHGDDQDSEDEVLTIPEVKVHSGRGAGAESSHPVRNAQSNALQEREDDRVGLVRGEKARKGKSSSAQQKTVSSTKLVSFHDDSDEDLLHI

Kd (M6P receptor [1]) [nM]	Kd (M6P receptor [2]) [nM]	Substance
0.3 to 14		IGF-II: non-glycosylated single chain of 67 amino acid residues, SEQ ID NO. 1
	2.4	retinoic acid
